According to article doi:10.1101/2025.04.08.647683:

Assays:
[1] = molecular target: T1, QuiR2;QuiR (Listeria monocytogenes EGD-e;Listeria monocytogenes EGD-e?) (UniProt Q8Y543+Q8Y9N7); assay: EMSA
T1 sequence 1: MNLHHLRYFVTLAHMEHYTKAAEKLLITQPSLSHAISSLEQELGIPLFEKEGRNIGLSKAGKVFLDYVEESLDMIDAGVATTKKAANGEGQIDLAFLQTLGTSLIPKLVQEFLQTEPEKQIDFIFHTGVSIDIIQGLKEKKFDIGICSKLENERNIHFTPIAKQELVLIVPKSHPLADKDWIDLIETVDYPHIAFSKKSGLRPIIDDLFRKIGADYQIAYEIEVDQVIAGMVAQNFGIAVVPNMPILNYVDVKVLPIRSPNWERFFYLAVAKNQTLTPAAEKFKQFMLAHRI
T1 sequence 2: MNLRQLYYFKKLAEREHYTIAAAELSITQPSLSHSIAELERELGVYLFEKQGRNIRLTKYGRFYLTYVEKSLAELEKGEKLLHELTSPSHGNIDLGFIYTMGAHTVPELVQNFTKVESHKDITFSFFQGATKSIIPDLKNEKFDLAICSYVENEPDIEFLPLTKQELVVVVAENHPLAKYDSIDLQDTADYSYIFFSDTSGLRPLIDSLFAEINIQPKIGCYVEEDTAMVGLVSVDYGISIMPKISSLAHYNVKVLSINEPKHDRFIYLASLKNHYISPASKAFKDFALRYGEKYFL

[2] = molecular target: T2, QuiR2 (Listeria monocytogenes EGD-e) (UniProt Q8Y543); assay: EMSA
T2 sequence: T1 sequence 1

CGCAAGTTCATCGGTTAACCTCCTCGGAATGCCTTGATAACTCTATTGTAAGCGATTGTATAGAAAAAATCTATGGATAAATCGAAAAATATACATTAGATTAATAATTATTCCTGACTTATAATGAAAGAGAAATAAGATTGTGCATTATTGAACGTGAATAATGTAACAAATCATTTGCTGAGATTATAGTCGCAGGAGGCTTATTATGACAGATTATCCGAG (double strand) [qui1 intergenic region probe (225 nt)]
binding [1]: binds | binding [2]: binds
